Test [1] concerns the target Human Insulin Receptor protein fragment (Abcam cat #ab200510) (human) (UniProt P06213). As to the kind of experiment: ELISA on human insulin receptor fragment. Background: In an ELISA, binding on a coated surface is turned into a signal by an enzyme label.
Test [2] concerns the target mouse insulin receptor (mInsR, R&D Systems, Inc., Cat. No. 7544-MR) (mouse) (UniProt P15208). As to the kind of experiment: ELISA on mouse insulin receptor.
Test [3] addresses Human Insulin Receptor protein fragment (Abcam cat #ab200510) (human) (UniProt P06213). As to the kind of experiment: ELISA on human insulin receptor fragment, relative to 83-14 mAb.
Test [4] has as its target T1, Human Insulin Receptor protein fragment (Abcam cat #ab200510) (human, UniProt P06213-2 28-944, limits assumed).
T1 construct: domain: extracellular domain of the alpha subunit; Bought fragment; also called HIR; extracellular domain of the alpha subunit of the human insulin receptor
As to the kind of experiment: ELISA on human insulin receptor fragment.

The target of test [5] is T1, Human Insulin Receptor protein fragment …. Briefly: ELISA on human insulin receptor fragment, relative to 83-14 mAb.
In test [6] the target is T2, mouse insulin receptor (mInsR, R&D Systems, Inc., Cat. No. 7544-MR) (mouse, UniProt P15208 28-946, limits assumed).
T2 construct: extracellular domain; Bought protein; also called extracellular domain of the mouse insulin receptor
Briefly: ELISA on mouse insulin receptor.

The results in this text go back to patent US20240350653A1 (JOINT STOCK COMPANY GENERIUM, published 2024).

Positions count from the first letter of the chain named.

Take HIR-MAB-IDS (antibody): the EC50 is 0.0262 µg/mL in test [1] and > 0.8 µg/mL in test [2]. In test [3], this molecule registered a Receptor binding from antibody 83-14 mAb, % of 126%.
As for “INSR/Insulin Receptor alpha Antibody 83-14 (Life technologies, cat#AHR0221)”, the figures for the EC50 in test [1] and in test [2] were 0.0321 µg/mL and > 0.8 µg/mL, respectively. Also, the Receptor binding from antibody 83-14 mAb, % in test [3] was found to be 102%.

B1: HIR-FAB-IDS (SEQ ID NO: 2 and SEQ ID NO: 4) (Fab)
light: DIQMTQSPSSLSASLGERVSLTCRASQDIGGNLYWLQQGPDGTIKRLIYATSSLDSGVPKRFSGSRSGSDYSLTISSLESEDFVDYYCLQYSSSPWTFGGGTKMEIKRTVAAPSVFIFPPSDEQLKSGTASVVCLLNNFYPREAKVQWKVDNALQSGNSQESVTEQDSKDSTYSLSSTLTLSKADYEKHKVYACEVTHQGLSSPVTKSFNRGEC
heavy: QVQLQQSGPELVKPGALVKISCKASGYTFTNYDIHWVKQRPGQGLEWIGWIYPGDGSTKYNEKFKGKATLTADKSSSTAYMHLSSLTSEKSAVYFCAREWAYWGQGTLVTVSAASTKGPSVFPLAPSSKSTSGGTAALGCLVKDYFPEPVTVSWNSGALTSGVHTFPAVLQSSGLYSLSSVVTVPSSSLGTQTYICNVNHKPSNTKVDKKVEPKSCDKTHLSSSETQANSTTDALNVLLIIVDDLRPSLGCYGDKLVRSPNIDQLASHSLLFQNAFAQQAVCAPSRVSFLTGRRPDTTRLYDFNSYWRVHAGNFSTIPQYFKENGYVTMSVGKVFHPGISSNHTDDSPYSWSFPPYHPSSEKYENTKTCRGPDGELHANLLCPVDVLDVPEGTLPDKQSTEQAIQLLEKMKTSASPFFLAVGYHKPHIPFRYPKEFQKLYPLENITLAPDPEVPDGLPPVAYNPWMDIRQREDVQALNISVPYGPIPVDFQRKIRQSYFASVSYLDTQVGRLLSALDDLQLANSTIIAFTSDHGWALGEHGEWAKYSNFDVATHVPLIFYVPGRTASLPEAGEKLFPYLDPFDSASQLMEPGRQSMDLVELVSLFPTLAGLAGLQVPPRCPVPSFHVELCREGKNLLKHFRFRDLEEDPYLPGNPRELIAYSQYPRPSDIPQWNSDKPSLKDIKIMGYSIRTIDYRYTVWVGFNPDEFLANFSDIHAGELYFVDSDPLQDHNMYNDSQGGDLFQLLMP
notes: Fab fragment of an IgG1 antibody to the human insulin receptor, fused to iduronate-2-sulfatase; also called rIDS-FAB-HI; rHI-FAB-IDS
The molecule B1 displayed an EC50 in test [4] of 0.0243 µg/mL. Besides, in test [5], the “Receptor binding from antibody 83-14 mAb, %” value came out at 136%. Besides, in test [6], the EC50 is > 0.8 µg/mL and the “Receptor binding, %” value was determined as 0%.

B2: HIR-FAB-IDS (SEQ ID NO: 2 and SEQ ID NO: 5) (Fab)
light: B1 light
heavy: QVQLQQSGPELVKPGALVKISCKASGYTFTNYDIHWVKQRPGQGLEWIGWIYPGDGSTKYNEKFKGKATLTADKSSSTAYMHLSSLTSEKSAVYFCAREWAYWGQGTLVTVSAASTKGPSVFPLAPSSKSTSGGTAALGCLVKDYFPEPVTVSWNSGALTSGVHTFPAVLQSSGLYSLSSVVTVPSSSLGTQTYICNVNHKPSNTKVDKKVEPKSCDKTHGGGGSGGGGSGGGGSSETQANSTTDALNVLLIIVDDLRPSLGCYGDKLVRSPNIDQLASHSLLFQNAFAQQAVCAPSRVSFLTGRRPDTTRLYDFNSYWRVHAGNFSTIPQYFKENGYVTMSVGKVFHPGISSNHTDDSPYSWSFPPYHPSSEKYENTKTCRGPDGELHANLLCPVDVLDVPEGTLPDKQSTEQAIQLLEKMKTSASPFFLAVGYHKPHIPFRYPKEFQKLYPLENITLAPDPEVPDGLPPVAYNPWMDIRQREDVQALNISVPYGPIPVDFQRKIRQSYFASVSYLDTQVGRLLSALDDLQLANSTIIAFTSDHGWALGEHGEWAKYSNFDVATHVPLIFYVPGRTASLPEAGEKLFPYLDPFDSASQLMEPGRQSMDLVELVSLFPTLAGLAGLQVPPRCPVPSFHVELCREGKNLLKHFRFRDLEEDPYLPGNPRELIAYSQYPRPSDIPQWNSDKPSLKDIKIMGYSIRTIDYRYTVWVGFNPDEFLANFSDIHAGELYFVDSDPLQDHNMYNDSQGGDLFQLLMP
notes: Variant of the Fab-iduronate-2-sulfatase fusion
In turn, B2 came in with an EC50 in test [4] of 0.0503 µg/mL. The “Receptor binding from antibody 83-14 mAb, %” value in test [5] was found to be 66%. For the same molecule, in test [6], the EC50 is > 0.8 µg/mL and the “Receptor binding, %” value came out at 0%.

B3: HIR-FAB-IDS (SEQ ID NO: 8 and SEQ ID NO: 12) (Fab)
light: DIQMTQSPSSLSASVGDRVTITCRASQDIGGNLYWYQQKPGKAPKLLIYATSSLDSGVPSRFSGSGSGTDFTLTISSLQPEDVATYYCLQYSSSPWTFGQGTKVEIKRTVAAPSVFIFPPSDEQLKSGTASVVCLLNNFYPREAKVQWKVDNALQSGNSQESVTEQDSKDSTYSLSSTLTLSKADYEKHKVYACEVTHQGLSSPVTKSFNRGEC
heavy: EVQLVESGGGLVQPGRSLRLSCAASGFTFTNYDIHWVRQAPGKGLEWVSWIYPGDGSTKYNEKFKGRFTISRDNAKNSLYLQMNSLRAEDTAVYYCAKEWAYWGQGTLVTVSSASTKGPSVFPLAPSSKSTSGGTAALGCLVKDYFPEPVTVSWNSGALTSGVHTFPAVLQSSGLYSLSSVVTVPSSSLGTQTYICNVNHKPSNTKVDKKVEPKSCDKTHLSSSETQANSTTDALNVLLIIVDDLRPSLGCYGDKLVRSPNIDQLASHSLLFQNAFAQQAVCAPSRVSFLTGRRPDTTRLYDFNSYWRVHAGNFSTIPQYFKENGYVTMSVGKVFHPGISSNHTDDSPYSWSFPPYHPSSEKYENTKTCRGPDGELHANLLCPVDVLDVPEGTLPDKQSTEQAIQLLEKMKTSASPFFLAVGYHKPHIPFRYPKEFQKLYPLENITLAPDPEVPDGLPPVAYNPWMDIRQREDVQALNISVPYGPIPVDFQRKIRQSYFASVSYLDTQVGRLLSALDDLQLANSTIIAFTSDHGWALGEHGEWAKYSNFDVATHVPLIFYVPGRTASLPEAGEKLFPYLDPFDSASQLMEPGRQSMDLVELVSLFPTLAGLAGLQVPPRCPVPSFHVELCREGKNLLKHFRFRDLEEDPYLPGNPRELIAYSQYPRPSDIPQWNSDKPSLKDIKIMGYSIRTIDYRYTVWVGFNPDEFLANFSDIHAGELYFVDSDPLQDHNMYNDSQGGDLFQLLMP
notes: as for B2
With B3, the EC50 in test [4] is 0.121 µg/mL; in test [6], > 0.8 µg/mL. For the same molecule, in test [5], the “Receptor binding from antibody 83-14 mAb, %” value worked out at 27%. Moreover, the “Receptor binding, %” value in test [6] worked out at 0%.

B4: HIR-FAB-IDS (SEQ ID NO: 11 and SEQ ID NO: 15) (Fab)
light: EIVLTQSPATLSLSPGERATLSCRASQDIGGNLYWYQQKPGQAPRLLIYATSSLDSGIPARFSGSGSGTDFTLTISSLEPEDFAVYYCLQYSSSPWTFGQGTRLEIKRTVAAPSVFIFPPSDEQLKSGTASVVCLLNNFYPREAKVQWKVDNALQSGNSQESVTEQDSKDSTYSLSSTLTLSKADYEKHKVYACEVTHQGLSSPVTKSFNRGEC
heavy: B3 heavy with T30N, N77K, V93L, L108T, S127G, K129S, S130K, T131S, S132T, G133S
notes: as for B2
With B4, the EC50 in test [4] is 0.156 µg/mL; in test [6] it was > 0.8 µg/mL. Also, in test [5], the “Receptor binding from antibody 83-14 mAb, %” value was determined as 21%. The “Receptor binding, %” value in test [6] worked out at 0%.

B5: HIR-FAB-IDS (SEQ ID NO: 10 and SEQ ID NO: 14) (Fab)
light: B3 light with M4L, L46V, V83F
heavy: EVQLVESGGGLVQPGGSLRLSCAASGYDFTNYDIHWVRQAPGKGLEWVGWIYPGDGSTKYNEKFKGRFTFSLDTSKSTAYLQMNSLRAEDTAVYYCAKEWAYWGQGTLVTVSSASTKGPSVFPLAPSSKSTSGGTAALGCLVKDYFPEPVTVSWNSGALTSGVHTFPAVLQSSGLYSLSSVVTVPSSSLGTQTYICNVNHKPSNTKVDKKVEPKSCDKTHLSSSETQANSTTDALNVLLIIVDDLRPSLGCYGDKLVRSPNIDQLASHSLLFQNAFAQQAVCAPSRVSFLTGRRPDTTRLYDFNSYWRVHAGNFSTIPQYFKENGYVTMSVGKVFHPGISSNHTDDSPYSWSFPPYHPSSEKYENTKTCRGPDGELHANLLCPVDVLDVPEGTLPDKQSTEQAIQLLEKMKTSASPFFLAVGYHKPHIPFRYPKEFQKLYPLENITLAPDPEVPDGLPPVAYNPWMDIRQREDVQALNISVPYGPIPVDFQRKIRQSYFASVSYLDTQVGRLLSALDDLQLANSTIIAFTSDHGWALGEHGEWAKYSNFDVATHVPLIFYVPGRTASLPEAGEKLFPYLDPFDSASQLMEPGRQSMDLVELVSLFPTLAGLAGLQVPPRCPVPSFHVELCREGKNLLKHFRFRDLEEDPYLPGNPRELIAYSQYPRPSDIPQWNSDKPSLKDIKIMGYSIRTIDYRYTVWVGFNPDEFLANFSDIHAGELYFVDSDPLQDHNMYNDSQGGDLFQLLMP
notes: as for B2
In test [4], B5 gave an EC50 of 0.0351 µg/mL. Moreover, in test [5], the “Receptor binding from antibody 83-14 mAb, %” value is 94%. Besides, in test [6], the EC50 is > 0.8 µg/mL and the “Receptor binding, %” value came out at 0%.

B6: HIR-FAB-IDS (SEQ ID NO: 9 and SEQ ID NO: 13) (Fab)
light: EIVLTQSPDFQSVTPKEKVTITCRASQDIGGNLYWYQQKPDQSPKLLIKATSSLDSGVPSRFSGSGSGTDFTLTINSLEAEDAAAYYCLQYSSSPWTFGPGTKVDIKRTVAAPSVFIFPPSDEQLKSGTASVVCLLNNFYPREAKVQWKVDNALQSGNSQESVTEQDSKDSTYSLSSTLTLSKADYEKHKVYACEVTHQGLSSPVTKSFNRGEC
heavy: B3 heavy with E1Q, L11V, T30S, S49A, A75S, S78T, S85G, K98R, K210R
notes: as for B2
With B6, the EC50 in test [4] was found to be 0.0604 µg/mL. In test [5], the “Receptor binding from antibody 83-14 mAb, %” value was found to be 55%. Moreover, in test [6], the EC50 was > 0.8 µg/mL and the “Receptor binding, %” value is 0%.

Usually EC50 stands for the midpoint of the concentration-response curve. The low end stands for a more potent agent, the high end for a less potent agent.
